Biological target: T1, extracellular domain of human BCMA (Homo sapiens, UniProt Q02223)
T1 construct: B cell maturation antigen (BCMA), human, extracellular domain; PDB 4ZFO chain F was only the search model for molecular replacement; For the Octet experiments the methods say that antigens were either expressed in-house (ECD with His-tag) or commercially available
Assay: crystal structure; BCMA and UniAb VH mixed at a 1:2 molar ratio for 20 min at 4°C, complex isolated by SEC (20 mM PBS, 250 mM NaCl); sitting drop vapor diffusion, 0.2 M sodium malonate pH 4.0, 20% PEG 3350; 2.6 Å; two complexes in the asymmetric unit
Conditions: both partners purified

T1 sequence (Q02223 1-54): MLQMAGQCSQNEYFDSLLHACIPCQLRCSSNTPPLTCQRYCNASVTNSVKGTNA

B1: anti-BCMA UniAb VH (IgHV3-23) (VHH)
VHH: EVQLVESGGGLVQPGGSLRLSCAASGFTVSSYGMSWVRQAPGKGPEWVSGIRGSDGSTYYADSVKGRFTISRDNSKNTLYLQMNSLRAEDTAVYYCAKQGENDGPFDHRGQGTLVTVS
notes: fully human VH single domain (IgHV3-23) from a UniRat heavy chain-only antibody, with R109 in framework 4 (W101R, Kabat); Human VH used as a single domain, no light chain and no Fc; also called UniAb VH (VH3-23)
  binding result: binds
